Test results published in patent US20240262923A1 (Sanofi, published 2024).

Assays:
[1] = biological target: T1, cynomolgus monkey 4-1BB expressed on 300.19 pre-B cells (cynomolgus monkey, UniProt A9YYE7 24-254); test: flow cytometry on transfected 300.19 pre-B cells
T1 construct: whole, on cells; also called cy4-1BB; Pre-B cy4-1BB

[2] = biological target: T2, cynomolgus monkey PD-1 expressed on 300.19 pre-B cells (cynomolgus monkey, UniProt B0LAJ3 25-288); test: flow cytometry on transfected 300.19 pre-B cells
T2 construct: also called cyPD-1; Pre-B cyPD-1
T2 sequence (B0LAJ3 entry or part of it limits assumed): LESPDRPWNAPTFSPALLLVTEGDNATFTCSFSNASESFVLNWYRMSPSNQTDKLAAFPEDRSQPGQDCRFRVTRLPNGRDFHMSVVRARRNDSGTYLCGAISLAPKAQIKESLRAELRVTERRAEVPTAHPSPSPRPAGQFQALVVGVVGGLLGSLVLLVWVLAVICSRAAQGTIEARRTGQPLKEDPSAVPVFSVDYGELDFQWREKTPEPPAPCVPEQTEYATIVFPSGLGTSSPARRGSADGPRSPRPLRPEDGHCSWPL

[3] = biological target: T3, human PD-1 expressed on cells (300.19 pre-B cells, PD-1 NFAT-luc2 Jurkat cells, primary T-cells) (human, UniProt Q15116 25-288); test: flow cytometry on transfected 300.19 pre-B cells
T3 construct: GenBank NP 005009.2 printed; also called hPD-1; Pre-B hPD-1
T3 sequence (Q15116 25-288 limits assumed): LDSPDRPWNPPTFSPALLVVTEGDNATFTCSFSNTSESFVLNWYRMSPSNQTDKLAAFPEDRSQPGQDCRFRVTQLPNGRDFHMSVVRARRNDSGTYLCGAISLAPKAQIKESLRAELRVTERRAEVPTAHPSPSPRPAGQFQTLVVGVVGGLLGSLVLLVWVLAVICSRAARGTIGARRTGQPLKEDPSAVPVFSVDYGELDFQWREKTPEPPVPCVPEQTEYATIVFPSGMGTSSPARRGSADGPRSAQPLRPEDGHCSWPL

[4] = biological target: T4, human 4-1BB expressed on cells (300.19 pre-B cells, Jurkat NF-κB-luc2P cells, primary T-cells) (human, UniProt Q07011 24-255); test: flow cytometry on transfected 300.19 pre-B cells
T4 construct: also called h4-1BB; Pre-B h4-1BB
T4 sequence (Q07011 24-255 limits assumed): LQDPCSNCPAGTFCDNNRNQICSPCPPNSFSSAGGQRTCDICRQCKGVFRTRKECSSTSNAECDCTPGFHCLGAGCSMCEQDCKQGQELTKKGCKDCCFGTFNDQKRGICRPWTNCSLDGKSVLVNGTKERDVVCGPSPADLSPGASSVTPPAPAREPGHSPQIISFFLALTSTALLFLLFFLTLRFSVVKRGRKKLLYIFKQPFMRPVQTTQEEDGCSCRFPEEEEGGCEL

[5] = biological target: T5, PD-1 in the PD-1/PD-L1 interaction assay (human, UniProt Q15116 25-167, limits assumed); test: PD-1/PD-L1 interaction assay, Relative EC50, IgG1 LALA
T5 sequence (Q15116 25-167 limits assumed): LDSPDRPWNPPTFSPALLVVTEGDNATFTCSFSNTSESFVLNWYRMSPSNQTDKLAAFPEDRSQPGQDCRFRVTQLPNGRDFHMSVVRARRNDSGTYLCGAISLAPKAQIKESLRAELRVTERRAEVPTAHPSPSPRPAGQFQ

[6] = biological target: T3, human PD-1 expressed on cells (300.19 …); test: flow cytometry on anti-CD3-stimulated primary human T-cells
[7] = biological target: T3, human PD-1 expressed on cells (300.19 …); test: cell-based or functional assay
[8] = biological target: T3, human PD-1 expressed on cells (300.19 …); test: flow cytometry on Jurkat reporter cells
[9] = biological target: T5, PD-1 in the PD-1/PD-L1 interaction assay; test: PD-1/PD-L1 interaction assay, Relative EC50, Fab
[10] = biological target: T5, PD-1 in the PD-1/PD-L1 interaction assay; test: PD-1/PD-L1 interaction assay, EC50 of Fab against IgG1 LALA
[11] = biological target: T6, human His-tagged 4-1BB recombinant protein (human, UniProt Q07011 24-186); test: ELISA (FIG. 7A), bivalent monoparatopic Fab-like
T6 construct: also called human 4-1BB; h4-1BB; not shown: His tag

B1: anti-PD-1 antibody clone T5 (IgG1 LALA) (antibody, V domains shown)
VH: QLQLQESGPGLVKPSETLSLTCTVSGGSISTSSYFWGWIRQPPGKGLEWIGSIYRSGSTYYNPSLKSRVTISVDTSKNQFSLKLSSVTAADTAVYYCARGITGDPGDYWGQGTLVTVSS
VL: EIVLTQSPATLSLSPGERATLSCGASQSVSINFLAWYQQKPGLAPRLLIYEASSRATGIPDRFSGSGSGTDFTLTISRLEPEDFAVYYCQQYGSSPYTFGQGTKLEIK
binding result [1]: no binding
EC50 [2]: 0.417 nM
Emax [2]: 17700 MFI
EC50 [3]: 0.284 nM
Emax [3]: 6240 MFI
binding result [4]: no binding
EC50 [5]: 0.278 nM
EC50 [6]: 0.205 nM
IC50 (nM) PD-1 reporter assay [7]: 2.8 nM
EC50 [8]: 0.278 nM
Emax [8]: 280 MFI

B2: anti-PD-1 antibody clone T5, Fab format (Fab, V domains shown)
VH: QLQLQESGPGLVKPSETLSLTCTVSGGSISTSSYFWGWIRQPPGKGLEWIGSIYRSGSTYYNPSLKSRVTISVDTSKNQFSLKLSSVTAADTAVYYCARGITGDPGDYWGQGTLVTVSS
VL: EIVLTQSPATLSLSPGERATLSCGASQSVSINFLAWYQQKPGLAPRLLIYEASSRATGIPDRFSGSGSGTDFTLTISRLEPEDFAVYYCQQYGSSPYTFGQGTKLEIK
EC50 [9]: 48.8 nM
Ratio Fab:IgG1 [10]: 176 fold

B3: anti-4-1BB clone #5c VHH, bivalent monoparatopic Fab-like construct (other)
chain 1: QVQLQESGGGLVQAGGSLRLSCAASGDTFSSYAMGWFRQAPGERLEWVASINPSGGSQSYHPSVKDRFTISRDNGKNILFLQLDKLNPEDTAVYVCARGTRYKIFASGQGTQVTVSS
chain 2: QVQLQESGGGLVQAGGSLRLSCAASGDTFSSYAMGWFRQAPGERLEWVASINPSGGSQSYHPSVKDRFTISRDNGKNILFLQLDKLNPEDTAVYVCARGTRYKIFASGQGTQVTVSS
notes: not shown: human CL (lambda) constant domain, tag if any; human IgG1 CH1 domain, HA and 6-His tags
binding result [11]: binds
